# In patent US20220411483A1 (Chugai, published 2022):
# T1: FcγRIIa R type extracellular domain with C-terminal His tag (human, UniProt P12318 34-217)
# T1 construct: extracellular domain; also called FcgRIIaR
# T1 sequence (looked up): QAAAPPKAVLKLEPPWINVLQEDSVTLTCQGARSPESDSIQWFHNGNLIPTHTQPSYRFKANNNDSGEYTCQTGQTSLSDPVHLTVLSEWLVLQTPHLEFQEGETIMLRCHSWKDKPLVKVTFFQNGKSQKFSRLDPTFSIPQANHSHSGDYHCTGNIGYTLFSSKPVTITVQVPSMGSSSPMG
# Legend:
# [1] = molecular target: T2, FcγRIa extracellular domain with C-terminal His tag (human, UniProt P12314 16-292); test: SPR (Biacore), FcgR as analyte
# T2 construct: also called FcgRIa
# [2] = molecular target: T1, FcγRIIa R type extracellular domain …; test: SPR (Biacore), FcgR as analyte
# T2 sequence (P12314 16-292): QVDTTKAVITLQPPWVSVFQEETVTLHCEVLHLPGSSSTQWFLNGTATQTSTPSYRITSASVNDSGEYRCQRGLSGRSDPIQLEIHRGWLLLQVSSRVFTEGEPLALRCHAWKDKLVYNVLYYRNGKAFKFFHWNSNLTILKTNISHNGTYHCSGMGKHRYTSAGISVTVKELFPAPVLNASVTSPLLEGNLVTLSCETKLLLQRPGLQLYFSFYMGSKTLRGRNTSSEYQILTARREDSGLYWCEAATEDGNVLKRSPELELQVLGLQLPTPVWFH
Kd [1] [nM],Kd [2] [nM],Binder
6.6,2600,"IL6R-BP192/IL6R-L (antibody, human IgG1, kappa, name in EU numbering, IgG1; alterations on IL6R-B3, EU numbering) heavy: QVQLQESGPGLVKPSETLSLTCAVSGHSISHDHAWSWVRQPPGEGLEWIGFISYSGITNYNPSLQGRVTISRDNSKNTLYLQMNSLRAEDTAVYYCARSLARTTAMDYWGEGTLVTVSSASTKGPSVFPLAPSSKSTSGGTAALGCLVKDYFPEPVTVSWNSGALTSGVHTFPAVLQSSGLYSLSSVVTVPSSSLGTQTYICNVNHKPSNTKVDKKVEPKSCDKTHTCPPCPAPDLLGGDSVFLFPPKPKDTLMISRTPEVTCVVVDVSDEDGEVKFNWYVDGVEVHNAKTKPREEQDNSTYRVVSVLTVLHQDWLNGKEYKCKVSNKALPKPIEKTISKAKGQPREPQVYTLPPSRDELTKNQVSLTCLVKGFYPSDIAVEWESNGQPENNYKTTPPVLDSDGSFFLYSKLTVDKSRWQQGNVFSCSVMHEALHNHYTQESLSLSP light: not shown"
20,–,"IL6R-BP220/IL6R-L (antibody, human IgG1, kappa, name in EU numbering, IgG1; alterations on IL6R-B3, EU numbering) heavy: QVQLQESGPGLVKPSETLSLTCAVSGHSISHDHAWSWVRQPPGEGLEWIGFISYSGITNYNPSLQGRVTISRDNSKNTLYLQMNSLRAEDTAVYYCARSLARTTAMDYWGEGTLVTVSSASTKGPSVFPLAPSSKSTSGGTAALGCLVKDYFPEPVTVSWNSGALTSGVHTFPAVLQSSGLYSLSSVVTVPSSSLGTQTYICNVNHKPSNTKVDKKVEPKSCDKTHTCPPCPAPDLLGDDSVFLFPPKPKDTLMISRTPEVTCVVVDVSDEDGEVKFNWYVDGVEVHNAKTKPREEQDNSTYRVVSVLTVLHQDWLNGKEYKCKVSNKALPKPIEKTISKAKGQPREPQVYTLPPSRDELTKNQVSLTCLVKGFYPSDIAVEWESNGQPENNYKTTPPVLDSDGSFFLYSKLTVDKSRWQQGNVFSCSVMHEALHNHYTQESLSLSP light: not shown"
4,3000,"IL6R-BP191/IL6R-L (antibody, human IgG1, kappa, name in EU numbering, IgG1; alterations on IL6R-B3, EU numbering) heavy: QVQLQESGPGLVKPSETLSLTCAVSGHSISHDHAWSWVRQPPGEGLEWIGFISYSGITNYNPSLQGRVTISRDNSKNTLYLQMNSLRAEDTAVYYCARSLARTTAMDYWGEGTLVTVSSASTKGPSVFPLAPSSKSTSGGTAALGCLVKDYFPEPVTVSWNSGALTSGVHTFPAVLQSSGLYSLSSVVTVPSSSLGTQTYICNVNHKPSNTKVDKKVEPKSCDKTHTCPPCPAPDLLGGDSVFLFPPKPKDTLMISRTPEVTCVVVDVSDEDGEVKFNWYVDGVEVHNAKTKPREEQYNSTYRVVSVLTVLHQDWLNGKEYKCKVSNAALPKPIEKTISKAKGQPREPQVYTLPPSRDELTKNQVSLTCLVKGFYPSDIAVEWESNGQPENNYKTTPPVLDSDGSFFLYSKLTVDKSRWQQGNVFSCSVMHEALHNHYTQESLSLSP light: not shown"
70,–,"IL6R-BP233/IL6R-L (antibody, human IgG1, kappa, name in EU numbering, IgG1; alterations on IL6R-B3, EU numbering) heavy: QVQLQESGPGLVKPSETLSLTCAVSGHSISHDHAWSWVRQPPGEGLEWIGFISYSGITNYNPSLQGRVTISRDNSKNTLYLQMNSLRAEDTAVYYCARSLARTTAMDYWGEGTLVTVSSASTKGPSVFPLAPSSKSTSGGTAALGCLVKDYFPEPVTVSWNSGALTSGVHTFPAVLQSSGLYSLSSVVTVPSSSLGTQTYICNVNHKPSNTKVDKKVEPKSCDKTHTCPPCPAPEYLGDDSVFLFPPKPKDTLMISRTPEVTCVVVDVSHEDGEVKFNWYVDGVEVHNAKTKPREEQYNSTYRVVSVLTVLHQDWLNGKEYKCKVSNKALPKPIEKTISKAKGQPREPQVYTLPPSRDELTKNQVSLTCLVKGFYPSDIAVEWESNGQPENNYKTTPPVLDSDGSFFLYSKLTVDKSRWQQGNVFSCSVMHEALHNHYTQESLSLSP light: not shown"

# Continued, binder first:
Binder,Kd [1] [nM],Kd [2] [nM]
"IL6R-BP180/IL6R-L (antibody, human IgG1, kappa, name in EU numbering, IgG1; alterations on IL6R-B3, EU numbering) heavy: QVQLQESGPGLVKPSETLSLTCAVSGHSISHDHAWSWVRQPPGEGLEWIGFISYSGITNYNPSLQGRVTISRDNSKNTLYLQMNSLRAEDTAVYYCARSLARTTAMDYWGEGTLVTVSSASTKGPSVFPLAPSSKSTSGGTAALGCLVKDYFPEPVTVSWNSGALTSGVHTFPAVLQSSGLYSLSSVVTVPSSSLGTQTYICNVNHKPSNTKVDKKVEPKSCDKTHTCPPCPAPELLGDDSVFLFPPKPKDTLMISRTPEVTCVVVDVSHEDGEVKFNWYVDGVEVHNAKTKPREEQYNSTYRVVSVLTVLHQDWLNGKEYKCKVSNKALPKPIEKTISKAKGQPREPQVYTLPPSRDELTKNQVSLTCLVKGFYPSDIAVEWESNGQPENNYKTTPPVLDSDGSFFLYSKLTVDKSRWQQGNVFSCSVMHEALHNHYTQESLSLSP light: not shown",98,–
"IL6R-BP246/IL6R-L (antibody, human IgG1, kappa, name in EU numbering, IgG1; alterations on IL6R-B3, EU numbering) heavy: QVQLQESGPGLVKPSETLSLTCAVSGHSISHDHAWSWVRQPPGEGLEWIGFISYSGITNYNPSLQGRVTISRDNSKNTLYLQMNSLRAEDTAVYYCARSLARTTAMDYWGEGTLVTVSSASTKGPSVFPLAPSSKSTSGGTAALGCLVKDYFPEPVTVSWNSGALTSGVHTFPAVLQSSGLYSLSSVVTVPSSSLGTQTYICNVNHKPSNTKVDKKVEPKSCDKTHTCPPCPAPDLLGDDSVFLFPPKPKDTLMISRTPEVTCVVVDVQDEDGEVKFNWYVDGVEVHNAKTKPREEQDNSTYRVVSVLTVLHQDWLNGKEYKCKVSNAALPRPIEKTISKAKGQPREPQVYTLPPSRDELTKNQVSLTCLVKGFYPSDIAVEWESNGQPENNYKTTPPVLDSDGSFFLYSKLTVDKSRWQQGNVFSCSVMHEALHNHYTQESLSLSP light: not shown",8,–
"IL6R-BP243/IL6R-L (antibody, human IgG1, kappa, name in EU numbering, IgG1; alterations on IL6R-B3, EU numbering) heavy: QVQLQESGPGLVKPSETLSLTCAVSGHSISHDHAWSWVRQPPGEGLEWIGFISYSGITNYNPSLQGRVTISRDNSKNTLYLQMNSLRAEDTAVYYCARSLARTTAMDYWGEGTLVTVSSASTKGPSVFPLAPSSKSTSGGTAALGCLVKDYFPEPVTVSWNSGALTSGVHTFPAVLQSSGLYSLSSVVTVPSSSLGTQTYICNVNHKPSNTKVDKKVEPKSCDKTHTCPPCPAPDYLGDDSVFLFPPKPKDTLMISRTPEVTCVVVDVSDEDGEVKFNWYVDGVEVHNAKTKPREEQYNSTYRVVSVLTVLHQDWLNGKEYKCKVSNKALPRPIEKTISKAKGQPREPQVYTLPPSRDELTKNQVSLTCLVKGFYPSDIAVEWESNGQPENNYKTTPPVLDSDGSFFLYSKLTVDKSRWQQGNVFSCSVMHEALHNHYTQESLSLSP light: not shown",3,–
"IL6R-BP202/IL6R-L (antibody, human IgG1, kappa, name in EU numbering, IgG1; alterations on IL6R-B3, EU numbering) heavy: QVQLQESGPGLVKPSETLSLTCAVSGHSISHDHAWSWVRQPPGEGLEWIGFISYSGITNYNPSLQGRVTISRDNSKNTLYLQMNSLRAEDTAVYYCARSLARTTAMDYWGEGTLVTVSSASTKGPSVFPLAPSSKSTSGGTAALGCLVKDYFPEPVTVSWNSGALTSGVHTFPAVLQSSGLYSLSSVVTVPSSSLGTQTYICNVNHKPSNTKVDKKVEPKSCDKTHTCPPCPAPELLGDDSVFLFPPKPKDTLMISRTPEVTCVVVDVSHEDGEVKFNWYVDGVEVHNAKTKPREEQYNSTYRVVSVLTVLHQDWLNGKEYKCKVSNAALPRPIEKTISKAKGQPREPQVYTLPPSRDELTKNQVSLTCLVKGFYPSDIAVEWESNGQPENNYKTTPPVLDSDGSFFLYSKLTVDKSRWQQGNVFSCSVMHEALHNHYTQESLSLSP light: not shown",95,–
"IL6R-BP189/IL6R-L (antibody, human IgG1, kappa, name in EU numbering, IgG1; alterations on IL6R-B3, EU numbering) heavy: QVQLQESGPGLVKPSETLSLTCAVSGHSISHDHAWSWVRQPPGEGLEWIGFISYSGITNYNPSLQGRVTISRDNSKNTLYLQMNSLRAEDTAVYYCARSLARTTAMDYWGEGTLVTVSSASTKGPSVFPLAPSSKSTSGGTAALGCLVKDYFPEPVTVSWNSGALTSGVHTFPAVLQSSGLYSLSSVVTVPSSSLGTQTYICNVNHKPSNTKVDKKVEPKSCDKTHTCPPCPAPELLGDDSVFLFPPKPKDTLMISRTPEVTCVVVDVSDEDGEVKFNWYVDGVEVHNAKTKPREEQYNSTYRVVSVLTVLHQDWLNGKEYKCKVSNAALPKPIEKTISKAKGQPREPQVYTLPPSRDELTKNQVSLTCLVKGFYPSDIAVEWESNGQPENNYKTTPPVLDSDGSFFLYSKLTVDKSRWQQGNVFSCSVMHEALHNHYTQESLSLSP light: not shown",42,–
"IL6R-BP187/IL6R-L (antibody, human IgG1, kappa, name in EU numbering, IgG1; alterations on IL6R-B3, EU numbering) heavy: QVQLQESGPGLVKPSETLSLTCAVSGHSISHDHAWSWVRQPPGEGLEWIGFISYSGITNYNPSLQGRVTISRDNSKNTLYLQMNSLRAEDTAVYYCARSLARTTAMDYWGEGTLVTVSSASTKGPSVFPLAPSSKSTSGGTAALGCLVKDYFPEPVTVSWNSGALTSGVHTFPAVLQSSGLYSLSSVVTVPSSSLGTQTYICNVNHKPSNTKVDKKVEPKSCDKTHTCPPCPAPEYLGGDSVFLFPPKPKDTLMISRTPEVTCVVVDVSHEDGEVKFNWYVDGVEVHNAKTKPREEQYNSTYRVVSVLTVLHQDWLNGKEYKCKVSNAALPKPIEKTISKAKGQPREPQVYTLPPSRDELTKNQVSLTCLVKGFYPSDIAVEWESNGQPENNYKTTPPVLDSDGSFFLYSKLTVDKSRWQQGNVFSCSVMHEALHNHYTQESLSLSP light: not shown",25,2800
"IL6R-BP182/IL6R-L (antibody, human IgG1, kappa, name in EU numbering, IgG1; alterations on IL6R-B3, EU numbering) heavy: QVQLQESGPGLVKPSETLSLTCAVSGHSISHDHAWSWVRQPPGEGLEWIGFISYSGITNYNPSLQGRVTISRDNSKNTLYLQMNSLRAEDTAVYYCARSLARTTAMDYWGEGTLVTVSSASTKGPSVFPLAPSSKSTSGGTAALGCLVKDYFPEPVTVSWNSGALTSGVHTFPAVLQSSGLYSLSSVVTVPSSSLGTQTYICNVNHKPSNTKVDKKVEPKSCDKTHTCPPCPAPDLLGGDSVFLFPPKPKDTLMISRTPEVTCVVVDVSHEDGEVKFNWYVDGVEVHNAKTKPREEQDNSTYRVVSVLTVLHQDWLNGKEYKCKVSNKALPKPIEKTISKAKGQPREPQVYTLPPSRDELTKNQVSLTCLVKGFYPSDIAVEWESNGQPENNYKTTPPVLDSDGSFFLYSKLTVDKSRWQQGNVFSCSVMHEALHNHYTQESLSLSP light: not shown",10,–
"IL6R-BP223/IL6R-L (antibody, human IgG1, kappa, name in EU numbering, IgG1; alterations on IL6R-B3, EU numbering) heavy: QVQLQESGPGLVKPSETLSLTCAVSGHSISHDHAWSWVRQPPGEGLEWIGFISYSGITNYNPSLQGRVTISRDNSKNTLYLQMNSLRAEDTAVYYCARSLARTTAMDYWGEGTLVTVSSASTKGPSVFPLAPSSKSTSGGTAALGCLVKDYFPEPVTVSWNSGALTSGVHTFPAVLQSSGLYSLSSVVTVPSSSLGTQTYICNVNHKPSNTKVDKKVEPKSCDKTHTCPPCPAPEYLGDDSVFLFPPKPKDTLMISRTPEVTCVVVDVSDEDGEVKFNWYVDGVEVHNAKTKPREEQYNSTYRVVSVLTVLHQDWLNGKEYKCKVSNAALPRPIEKTISKAKGQPREPQVYTLPPSRDELTKNQVSLTCLVKGFYPSDIAVEWESNGQPENNYKTTPPVLDSDGSFFLYSKLTVDKSRWQQGNVFSCSVMHEALHNHYTQESLSLSP light: not shown",–,600
